We go through 1 molecule from US20180028641A1 (GlaxoSmithKline, published 2018).

This experiment has as its target T1, human transferrin hTF (Sigma T-4132) (human, UniProt P02787 20-698).
T1 construct: Bought protein
In words: gel filtration (Superdex 200 PC 3.2/30) of each protein and of the mixture, fractions analysed by SDS-PAGE.

T1 sequence (P02787 20-698 limits assumed): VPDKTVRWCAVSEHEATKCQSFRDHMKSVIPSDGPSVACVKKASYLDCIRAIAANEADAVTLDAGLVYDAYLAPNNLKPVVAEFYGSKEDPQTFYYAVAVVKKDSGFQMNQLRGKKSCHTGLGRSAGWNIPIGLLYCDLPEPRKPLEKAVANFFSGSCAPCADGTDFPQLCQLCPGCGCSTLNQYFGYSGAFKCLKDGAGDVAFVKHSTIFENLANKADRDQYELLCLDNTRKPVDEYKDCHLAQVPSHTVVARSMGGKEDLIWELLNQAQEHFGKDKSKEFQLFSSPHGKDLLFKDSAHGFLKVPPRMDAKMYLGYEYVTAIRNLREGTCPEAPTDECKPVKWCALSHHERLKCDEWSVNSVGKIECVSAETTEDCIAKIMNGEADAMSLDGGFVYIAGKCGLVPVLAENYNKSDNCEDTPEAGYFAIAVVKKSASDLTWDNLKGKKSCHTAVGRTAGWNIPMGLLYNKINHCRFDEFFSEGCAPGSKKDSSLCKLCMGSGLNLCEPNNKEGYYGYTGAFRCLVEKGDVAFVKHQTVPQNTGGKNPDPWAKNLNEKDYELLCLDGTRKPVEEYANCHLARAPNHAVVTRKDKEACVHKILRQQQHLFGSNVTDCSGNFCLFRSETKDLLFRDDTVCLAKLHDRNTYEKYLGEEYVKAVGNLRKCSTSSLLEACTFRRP

B1: recombinant NMB1870 (strain MC58, variant 1), His-tag fusion expressed in E. coli without the leader peptide (other)
chain: CSSGGGGVAADIGAGLADALTAPLDHKDKGLQSLTLDQSVRKNEKLKLAAQGAEKTYGNGDSLNTGKLKNDKVSRFDFIRQIEVDGQLITLESGEFQVYKQSHSALTAFQTEQIQDSEHSGKMVAKRQFRIGDIAGEHTSFDKLPEGGRATYRGTAFGSDDAGGKLTYTIDFAAKQGNGKIEHLKSPELNVDLAAADIKPDGKRHAVISGSVLYNQAEKGSYSLGIFGGKAQEVAGSAEVKTVNGIRHIGLAAKQ
notes: also called purified NMB1870; the recombinant protein; not shown: His-tag (pET-21b+ vector)
With B1, the binding result is “no binding (tested: 7 µM)”.
